Values quoted from earlier work in PMC7488417.

Target: cJun LZ (Homo sapiens) (UniProt P05412)
Assay: ITC

Chain of cJun LZ (Homo sapiens) (P05412 277-308): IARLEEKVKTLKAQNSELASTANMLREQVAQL
Chain of cFos LZ (P01100 162-193): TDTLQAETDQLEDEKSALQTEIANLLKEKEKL

Kd: 26.6 µM
Substance: cFos LZ (from UniProt P01100)
